# Assay results from patent US11160866B2, “Biomaterials for delivery of blood extracts and methods of using same” (Mosaic Biosciences, Inc., priority 2012, dated 2021).
# System: whole blood
# Test: PDGF release in ACD-anticoagulated whole blood treated with activators (Example 10)
# Type: cell-based, human
# Settings: after 60 minutes
# Method: Whole blood was collected from a healthy volunteer by a certified phlebotomist into a 8.5 mL ACD-containing Vacutainer. 375 ul of 0.167 mM PAR1-AP in ultrapure water or 200 ul of 0.1 unit/microliter of thrombin (Zymogenetics) were injected into the vacutainers via a sterile 1 mL syringe; samples were gently mixed by inverting 10 times and incubated at ambient temperature for specified time. The samples were then centrifugated at 2,380×g for 5 minutes at ambient temperatures and ˜3 mL clear supernatants were collected from the top of each sample and transferred into sterile 15 mL conical tubes. Concentration of PDGF-BB in each sample was determined by ELISA (Quantikine kit, R&D Systems) according to the manufacturer's protocol.
row,Compound,Signs of coagulation
1,"Nc1ncnc2c1ncn2[C@@H]1O[C@H](COP(=O)(O)OP(=O)(O)O)[C@@H](O)[C@H]1O [ADP, Adenosine-5′-diphosphate]",did not
2,Thrombin,some signs of coagulation

# System: platelets
# Test: Selectively activated PRP and washed platelet releasates, PDGF-BB ELISA (Example 11)
# Type: cell-based, human
# Settings: PRP and WP preparations, Patients A and B
# Method: Fresh whole blood (WB) was collected into tubes containing appropriate levels of Anti-coagulant Citrate Dextrose (ACD) to prevent platelet activation and coagulation. WB samples were then split into 4 conical tubes, 50 ml WB+ACD per tube. Red Blood Cells (RBCs) were then removed by centrifuging the tubes at 3500 rpm for 10 minutes in a clinical centrifuge. Supernatants (approximately 25 ml) with some RBCs remaining were pooled into 2 conical tubes and centrifuged again at 3500 rpm for 10 minutes. Clear supernatants (plasma) were then transferred to new 50 ml conical, and Buffy Coat (BC) with some RBCs put into 15 ml conicals. […]
# PRP and WPs were aliquotted into 1 ml volumes, and 4 tubes of PRP and 4 tubes of WPs were used for preparation of activated releasates: (1) no selective activation, in which no platelet activator was added (2) PAR1 activation, in which 20 ul of 500 uM PAR1 Activating Peptide (PAR1 AP) (SFLLRN, SEQ ID: 40) was added, (3) PAR4 activation, in which 20 ul of 500 uM PAR4 Activating Peptide (PAR4 AP) (AYPGKF, SEQ ID: 44) was added, and (4) ADP activation, to which 20 ul of 2.5 mM ADP (Adenosine-5′-diphosphate) was added. […] PDGF-BB levels were then measured by ELISA using a Human PDGF-BB Quantikine ELISA Kit (R&D Systems).
row,Compound,Release of PDGF-BB compared between activators
1,SFLLRN [PAR1-AP],greatest release of PDGF-BB

# Target: T1, Collagenase (Matrix metalloproteinase I) (Homo sapiens, UniProt P03956)
# T1 sequence (P03956 100-469): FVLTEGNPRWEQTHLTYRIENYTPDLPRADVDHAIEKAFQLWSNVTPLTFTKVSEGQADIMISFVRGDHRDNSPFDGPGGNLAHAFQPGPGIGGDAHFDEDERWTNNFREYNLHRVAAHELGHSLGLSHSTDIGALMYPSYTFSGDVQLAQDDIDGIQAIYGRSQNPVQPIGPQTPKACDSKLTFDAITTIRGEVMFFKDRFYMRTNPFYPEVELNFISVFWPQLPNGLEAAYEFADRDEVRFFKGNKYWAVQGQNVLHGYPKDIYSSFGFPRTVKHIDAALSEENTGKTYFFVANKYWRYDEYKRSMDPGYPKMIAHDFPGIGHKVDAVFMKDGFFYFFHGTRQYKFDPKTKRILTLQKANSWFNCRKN
# Test: not given
# Settings: cited from earlier work
row,Compound,kcat/Km relative to that of PQGIAG [%]
1,GPQGIAGQ,100
2,GPQGIASQ,130
3,GPQGIFGQ,>300
4,GPQGIWGQ,>700
5,GPQGRAGQ,<5
6,GPQGVAGQ,9
7,GPVGIAGQ,30
